By Ki is commonly meant the equilibrium dissociation constant of an inhibitor or competing ligand from its target.

The target in the experiment is purified catalytic subunit of cAMP-dependent protein kinase (PKA). Nature of the experiment: kinetic analysis of PKA phosphorylation of ARPP-21 at 0-15 uM phospho-Thr75 DARPP-32; Lineweaver-Burk and secondary plot, competitive inhibition.

B1: phospho-Thr75 DARPP-32 (other)
chain: MDPKDRKKIQFSVPAPPSQLDPRQVEMIRRRRPTPAMLFRLSEHSSPEEEASPHQRASGEGHHLKSKRPNPCAYTPPSLKAVQRIAESHLQSISNLNENQASEEEDELGELRELGYPREEDEEEEEDDEEEEEEEDSQAEVLKVIRQSAGQKTTRGLGLEGPWERPPPLDESERDGGSEDQVEDPALSEPGEEPQRPSPSEPGR
B1 gave a Ki of 2700 nM.

Values taken from patent US6989362 (ROCKEFELLER UNIVERSITY, dated 2006).
